# B1: Azoarcus group I ribozyme (parent)
# chain: GUGCCUUGCGCCGGGAAACCACGCAAGGGAUGGUGUCAAAUUCGGCGAAACCUAAGCGCCCGCCCGGGCGUAUGGCAACGCCGAGCCAAGCUUCGGCGCCUGCGCCGAUGAAGGUGUAGAGACUAGACGGCACCCACCUAAGGCAAACGCUAUGGUGAAGGCAUAGUCCAGGGAGUGGCGAAAGUCACACAAACCGG
# Variants of: B1
# Assay: reverse-splicing fitness (ratio to wild type); higher = more active; in vitro selection; Mg2+ level not given
# Procedure, shortened: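 An in vitro group I ribozyme library with randomized positions was T7-transcribed and gel-purified. In triplicate, 10 pmol RNA in EPPS pH 7.5 was reacted with 50 pmoles of a 30-nt RNA substrate for 1 h at 37 °C across several added MgCl2 levels (1–48 mM), then stopped with EDTA. Products were reverse transcribed from a substrate-complementary primer, PCR-amplified and sequenced (HiSeq 4000). Fitness is a variant's read proportion after selection over that before, normalised to wild type.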
row,Variant,reverse-splicing fitness
1,C82U C150U C169G U176G,0.0052
2,C82U C150U C169G U176C,0.015
3,C82U C150U C169G U176A,0.0135
4,A111C A120C A145C C150A C169U U176A,0.0155
5,A111C A120C A145C C150A C169U U176G,0.00564
6,A111C A120C A145C C150A C169U U176C,0.0108
7,C82U A145U C150U C169G U176C,0.0107
8,C82U A145U C150U C169G U176A,0.00933
9,C82U A145U C150U C169G U176G,0.00498
10,A111C A120C A145C C150G C169G,0.0064
11,A111C A120C A145C C150G C169A,0.00813
12,A111C A120C A145C C150G C169U,0.0267
13,A111C A120C A145C C150U C169G U176G,0.00592
14,A111C A120C A145C C150U C169G U176C,0.0118
15,A111C A120C A145C C150U C169G U176A,0.0202
16,C82U C150G C169U U176A,0.0076
17,C82U C150G C169U U176C,0.01
18,C82U C150G C169U U176G,0.0055
19,A111C,0.872
20,A111C A120C A145C C169A U176G,0.00493
21,A111C A120C A145C C169A U176C,0.00756
22,A111C A120C A145C C169A U176A,0.0126
23,C82U A145U C150G C169A,0.00864
24,C82U A145U C150G C169G,0.00717

row,Variant,reverse-splicing fitness
1,C82U A145U C150G C169U,0.00842
2,C82U A145U C169A U176A,0.00693
3,C82U A145U C169A U176C,0.00648
4,C82U A145U C169A U176G,0.00464
5,C82U C150U C169U U176G,0.00558
6,C82U C150U C169U U176A,0.0128
7,C82U C150U C169U U176C,0.0135
8,A111C A120C A145C C150A C169U,0.0161
9,A111C A120C A145C C150A C169G,0.0073
10,A111C A120C A145C C150A C169A,0.00839
11,C82U A145U C150U,0.438
12,C82U C150A,0.0698
13,C82U C150G,0.051
14,C82U C150U,0.369
15,A111C A120C A145C C150U,0.175
16,A111C A120C A145C C150G,0.0702
17,A111C A120C A145C C150A,0.0308
18,A111C A120C A145C C150A C169G U176G,0.007
19,A111C A120C A145C C150A C169G U176A,0.0246
20,A111C A120C A145C C150A C169G U176C,0.0146
21,C82U C150G C169G U176C,0.0054
22,C82U C150G C169G U176A,0.00631
23,C82U C150G C169G U176G,0.00464
24,A111C A120C A145C C150A U176C,0.0293

row,Variant,reverse-splicing fitness
1,A111C A120C A145C C150A U176G,0.0084
2,A111C A120C A145C C150A U176A,0.0203
3,A111C A120C A145C C150U C169U U176C,0.0237
4,A111C A120C A145C C150U C169U U176G,0.00555
5,A111C A120C A145C C150U C169U U176A,0.0206
6,C82U A145U C150G C169U U176A,0.00782
7,C82U A145U C150G C169U U176G,0.00514
8,C82U A145U C150G C169U U176C,0.0114
9,C82U C150G C169G,0.00776
10,C82U C150G C169U,0.00789
11,C82U C150G C169A,0.00916
12,A111C A120C A145C C150G C169A U176A,0.0076
13,A111C A120C A145C C150G C169A U176G,0.00595
14,A111C A120C A145C C150G C169A U176C,0.00793
15,C82U C150A C169G,0.00731
16,C82U C150A C169A,0.0107
17,C82U C150A C169U,0.0105
18,A111C A120C A145C C150A C169A U176C,0.00638
19,A111C A120C A145C C150A C169A U176A,0.0152
20,A111C A120C A145C C150A C169A U176G,0.00655
21,C82U A145U U176G,0.153
22,C82U A145U U176A,0.412
23,C82U A145U U176C,0.477
24,C82U C150U C169U,0.0129

row,Variant,reverse-splicing fitness
1,C82U C150U C169G,0.00973
2,C82U C150U C169A,0.00983
3,C82U A145U C169G U176G,0.00447
4,C82U A145U C169G U176A,0.00811
5,C82U A145U C169G U176C,0.00956
6,C82U A145U C150G C169G U176G,0.0049
7,C82U A145U C150G C169G U176A,0.00745
8,C82U A145U C150G C169G U176C,0.00478
9,C82U A145U C150U U176A,0.274
10,C82U A145U C150U U176G,0.0898
11,C82U A145U C150U U176C,0.346
12,C82U C150G C169A U176G,0.00612
13,C82U C150G C169A U176C,0.01
14,C82U C150G C169A U176A,0.0115
15,C82U C169A U176A,0.0127
16,C82U C169A U176C,0.0154
17,C82U C169A U176G,0.00439
18,C82U C150A C169U U176G,0.0058
19,C82U C150A C169U U176C,0.0153
20,C82U C150A C169U U176A,0.0169
21,C82U A145U C169U,0.0139
22,C82U A145U C169G,0.00906
23,C82U A145U C169A,0.00801
24,C82U C150G U176A,0.0283

row,Variant,reverse-splicing fitness
1,C82U C150G U176C,0.0477
2,C82U C150G U176G,0.00652
3,C82U C169U U176A,0.0123
4,C82U C169U U176C,0.0155
5,C82U C169U U176G,0.00445
6,C82U U176G,0.126
7,C82U U176A,0.386
8,C82U U176C,0.476
9,A111C A120C A145C C150G C169G U176A,0.00861
10,A111C A120C A145C C150G C169G U176G,0.00522
11,A111C A120C A145C C150G C169G U176C,0.00939
12,A111C A120C,0.576
13,C82U A145U C150U C169U,0.0118
14,C82U A145U C150U C169G,0.00951
15,C82U A145U C150U C169A,0.00939
16,A111C A120C A145C C150G C169U U176C,0.0163
17,A111C A120C A145C C150G C169U U176A,0.00995
18,A111C A120C A145C C150G C169U U176G,0.0054
19,A111C A120C A145C C150U U176G,0.0168
20,A111C A120C A145C C150U U176C,0.0914
21,A111C A120C A145C C150U U176A,0.069
22,C82U C150A C169G U176A,0.0177
23,C82U C150A C169G U176G,0.00558
24,C82U C150A C169G U176C,0.0184

row,Variant,reverse-splicing fitness
1,C82U A145U C150G U176A,0.0424
2,C82U A145U C150G U176G,0.0104
3,C82U A145U C150G U176C,0.0567
4,A111C A120C A145C,0.556
5,C82U A145U C150U C169U U176C,0.0115
6,C82U A145U C150U C169U U176G,0.00433
7,C82U A145U C150U C169U U176A,0.0133
8,A111C A120C A145C C150G U176A,0.0198
9,A111C A120C A145C C150G U176G,0.00444
10,A111C A120C A145C C150G U176C,0.0391
11,A111C A120C A145C C169A,0.00953
12,A111C A120C A145C C169G,0.0105
13,C82U A145U C169U U176G,0.00406
14,C82U A145U C169U U176C,0.0127
15,C82U A145U C169U U176A,0.0111
16,A111C A120C A145C C169G U176C,0.0167
17,A111C A120C A145C C169G U176A,0.0217
18,A111C A120C A145C C150U C169G,0.00649
19,A111C A120C A145C C150U C169A,0.00837
20,A111C A120C A145C C150U C169U,0.048
21,C82U C150A U176A,0.0603
22,C82U C150A U176G,0.0218
23,C82U C150A U176C,0.0779
24,C82U A145U C150U C169A U176A,0.0115

row,Variant,reverse-splicing fitness
1,C82U A145U C150U C169A U176G,0.0048
2,C82U A145U C150U C169A U176C,0.00789
3,C82U C169U,0.0149
4,C82U C169G,0.00984
5,C82U C169A,0.00905
6,C82U C150U U176G,0.0675
7,C82U C150U U176A,0.238
8,C82U C150U U176C,0.294
9,A111C A120C A145C C150U C169A U176C,0.005
10,A111C A120C A145C C150U C169A U176G,0.00703
11,A111C A120C A145C C150U C169A U176A,0.0107
12,C82U C150U C169A U176A,0.0154
13,C82U C150U C169A U176G,0.00561
14,C82U C150U C169A U176C,0.0123
15,C82U C169G U176A,0.0144
16,C82U C169G U176G,0.00406
17,C82U C169G U176C,0.0184
18,C82U C150A C169A U176C,0.0149
19,C82U C150A C169A U176G,0.00489
20,C82U C150A C169A U176A,0.019
21,C82U A145U C150G C169A U176C,0.00964
22,C82U A145U C150G C169A U176G,0.00523
23,C82U A145U C150G C169A U176A,0.0105

# Reference: the RNAGym collection of RNA variant scans (doi:10.1093/molbev/msab373)
